Experimental data from patent US20030105278A1 (MERK, published 2003).
Read-outs that look alike come from different tables or passages of the source. Bridges are numbered along the chain shown (N, C = ends). Where no end group is shown, it is not given here. [ ]: non-standard residue; d: D form. Ava = NCCCCC(=O)O

Assays:
[1] = target: T1, human MCH receptor expressed from the open reading frame cDNA SEQ. ID. NO. 1 in 293-AEQ17 cells (human, UniProt Q99705 1-353); assay: cell-based or functional assay
T1 sequence (Q99705 whole entry): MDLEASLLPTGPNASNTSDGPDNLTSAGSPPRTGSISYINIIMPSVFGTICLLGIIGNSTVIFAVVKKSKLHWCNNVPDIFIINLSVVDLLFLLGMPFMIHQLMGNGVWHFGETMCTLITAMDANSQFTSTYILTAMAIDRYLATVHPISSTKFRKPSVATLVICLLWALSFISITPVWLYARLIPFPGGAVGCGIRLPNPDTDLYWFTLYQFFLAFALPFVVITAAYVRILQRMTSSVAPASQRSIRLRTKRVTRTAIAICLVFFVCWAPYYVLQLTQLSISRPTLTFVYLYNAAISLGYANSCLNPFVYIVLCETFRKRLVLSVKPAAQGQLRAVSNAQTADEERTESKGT

[2] = target: T2, human MCH receptor (membranes from a stable CHO or HEK-293 cell line) (human, UniProt Q99705 1-353); assay: competition vs [125I]-human MCH (Phe13,Tyr19); human MCH receptor cell membranes (Example 3)
T2 construct: whole, on cells; also called cloned human MCH receptor (CHO clone)
T2 sequence (Q99705 whole entry): as above

[3] = target: T1, human MCH receptor expressed from the …; assay: cell-based or functional assay; remark: listed apart in the source
[4] = target: T2, human MCH receptor (membranes from a …); assay: competition vs [125I]-human MCH (Phe13,Tyr19); human MCH receptor cell membranes (Example 3); remark: listed apart in the source
[5] = target: T2, human MCH receptor (membranes from a …); assay: SPA competition vs [125I]-human MCH (Phe13,Tyr19); human MCH receptor cell membranes
[6] = target: T2, human MCH receptor (membranes from a …); assay: competition vs [125I]-human MCH (Phe13,Tyr19); human MCH receptor cell membranes (Example 3); remark: listed apart in the source
[7] = target: T2, human MCH receptor (membranes from a …); assay: as above; remark: listed apart in the source
[8] = target: T1, human MCH receptor expressed from the …; assay: cell-based or functional assay; remark: listed apart in the source
[9] = target: T2, human MCH receptor (membranes from a …); assay: competition vs [125I]-human MCH (Phe13,Tyr19); human MCH receptor cell membranes (Example 3); remark: listed apart in the source
[10] = target: T2, human MCH receptor (membranes from a …); assay: as above; remark: listed apart in the source
[11] = target: T1, human MCH receptor expressed from the …; assay: cell-based or functional assay; remark: listed apart in the source
[12] = target: T1, human MCH receptor expressed from the …; assay: cell-based or functional assay; remark: listed apart in the source
[13] = target: T1, human MCH receptor expressed from the …; assay: cell-based or functional assay; remark: listed apart in the source
[14] = target: T1, human MCH receptor expressed from the …; assay: cell-based or functional assay; remark: listed apart in the source
[15] = target: human MCH receptor (membranes from a stable CHO or HEK-293 cell line) (human) (UniProt Q99705); assay: competition vs [125I]-human MCH (Phe13,Tyr19); human MCH receptor cell membranes (Example 3)
Sequence of human MCH receptor (membranes from a stable CHO or HEK-293 cell line) (human) (Q99705 whole entry): as above

[16] = target: T2, human MCH receptor (membranes from a …); assay: competition vs [125I]-human MCH (Phe13,Tyr19); human MCH receptor cell membranes (Example 3); unit of the concentration '1' not given
[17] = target: T2, human MCH receptor (membranes from a …); assay: as above; remark: listed apart in the source

B1: MCH analog SEQ. ID. NO. 25 (N-Me-Nle^8) (peptide)
peptide: RCXLGRVYRPC
modifications: N-methyl-norleucine at position 8; N-terminal acetyl, C-terminal amide, Cys-Cys disulfide as in SEQ. ID. NO. 7
notes: ID; NO; 7 peptide; MCH position numbering
For B1, which Activation % [1] is on record?
The Activation % was 110%.

And the “EC50” value [1]?
Its value is 20 nM.

What about the IC50 [2] of the same binder?
Its IC50 is 0.16 nM.

B2: truncated MCH analog SEQ. ID. NO. 7: Ac-Arg-Cys-Met-Leu-Gly-Arg-Val-Tyr-Arg-Pro-Cys-amide (peptide)
peptide: Ac-RCMLGRVYRPC-NH2
modifications: disulfide 2-11 (inferred)
notes: Corresponds to MCH positions 6-16; also called ID; NO; 7 MCH analog
What does the source list for B2?
% Activation at 10 µM [3]: 123%; EC50 [3]: 18 nM; IC50 [4]: 1.4 nM; IC50 [5]: 0.12 nM; IC50 [6]: 0.5 nM; Activation % [1]: 99%; EC50 [1]: 20 nM; IC50 [7]: 1.4 nM; Activation % [8]: 99%; EC50 [8]: 20 nM; IC50 [9]: 0.5 nM; IC50 [10]: 1.4 nM; Activation % [11]: 99%; EC50 [11]: 20 nM; IC50 [2]: 1.4 nM; Activation % [12]: 99%; EC50 [12]: 20 nM; Activation % [13]: 99%; EC50 [13]: 20 nM; Activation % [14]: 99%; EC50 [14]: 20 nM

B3: MCH analog SEQ. ID. NO. 64 (position 13: His) (peptide)
peptide: Ac-RCMLGRVHRPC-NH2
modifications: disulfide 2-11
SMILES: CSCC[C@@H]1NC(=O)[C@@H](NC(=O)[C@H](CCCNC(=N)N)NC(C)=O)CSSC[C@@H](C(N)=O)NC(=O)[C@@H]2CCCN2C(=O)[C@H](CCCNC(=N)N)NC(=O)[C@H](Cc2c[nH]cn2)NC(=O)[C@H](C(C)C)NC(=O)[C@H](CCCNC(=N)N)NC(=O)CNC(=O)[C@H](CC(C)C)NC1=O
notes: as for B1
Which results are given for B3?
IC50 [4]: 13.1 nM; Activation % [8]: 66%; EC50 [8]: 3400 nM

B4: MCH analog SEQ. ID. NO. 62 (position 13: Phe) (peptide)
peptide: Ac-RCMLGRVFRPC-NH2
modifications: disulfide 2-11
SMILES: CSCC[C@@H]1NC(=O)[C@@H](NC(=O)[C@H](CCCNC(=N)N)NC(C)=O)CSSC[C@@H](C(N)=O)NC(=O)[C@@H]2CCCN2C(=O)[C@H](CCCNC(=N)N)NC(=O)[C@H](Cc2ccccc2)NC(=O)[C@H](C(C)C)NC(=O)[C@H](CCCNC(=N)N)NC(=O)CNC(=O)[C@H](CC(C)C)NC1=O
notes: as for B1
What does the source list for B4?
IC50 [4]: 1 nM; Activation % [8]: 96%; EC50 [8]: 46 nM

B5: MCH analog SEQ. ID. NO. 63 (position 13: Trp) (peptide)
peptide: Ac-RCMLGRVWRPC-NH2
modifications: disulfide 2-11
SMILES: CSCC[C@@H]1NC(=O)[C@@H](NC(=O)[C@H](CCCNC(=N)N)NC(C)=O)CSSC[C@@H](C(N)=O)NC(=O)[C@@H]2CCCN2C(=O)[C@H](CCCNC(=N)N)NC(=O)[C@H](Cc2c[nH]c3ccccc23)NC(=O)[C@H](C(C)C)NC(=O)[C@H](CCCNC(=N)N)NC(=O)CNC(=O)[C@H](CC(C)C)NC1=O
notes: as for B1
For B5, which IC50 [4] is on record?
The IC50 was 3.8 nM.

What about the Activation % [8] of the same binder?
Its Activation % is 83%.

What about the “EC50” value [8] of the same binder?
The value was 890 nM.

How did the IC50 [15] turn out when Ac-RCM[Ava][Ava]RVY[Ava][Ava]C-NH2 (disulfide 2-11; not fully specified) [MCH analog SEQ. ID. NO. 76 (Ava^9,10,Ava^14,15)] was run?
Its IC50 is 50 nM.

What about the Activation % [13] of the same binder?
Its Activation % is 3%.

What about the “EC50” value [13] of the same binder?
The value was greater than 10000 nM.

B6: MCH analog SEQ. ID. NO. 72 (Ava^14,15) (peptide)
peptide: Ac-RCMLGRVY[Ava][Ava]C-NH2
modifications: disulfide 2-11
notes: as for B1
How did the IC50 [7] turn out when B6 was run?
Its IC50 is 6.2 nM.

What about the Activation % [13] of the same binder?
The Activation % was 75%.

And the “EC50” value [13]?
The value was 406 nM.

B7: truncated MCH analog SEQ. ID. NO. 9: Ac-Cys-Met-Leu-Gly-Arg-Val-Tyr-Arg-Pro-Cys-amide (peptide)
peptide: Ac-CMLGRVYRPC-NH2
modifications: disulfide 1-10
SMILES: CSCC[C@@H]1NC(=O)[C@@H](NC(C)=O)CSSC[C@@H](C(N)=O)NC(=O)[C@@H]2CCCN2C(=O)[C@H](CCCNC(=N)N)NC(=O)[C@H](Cc2ccc(O)cc2)NC(=O)[C@H](C(C)C)NC(=O)[C@H](CCCNC(=N)N)NC(=O)CNC(=O)[C@H](CC(C)C)NC1=O
With B7 as the binder, how does the “% Activation at 10 µM” value [3] read?
Its value is 74%.

And the “EC50” value [3]?
The value was 300 nM.

And the IC50 [5]?
Its IC50 is 1.6 nM.

B8: truncated MCH analog SEQ. ID. NO. 8: Ac-Arg-Cys-Met-Leu-Gly-Arg-Val-Phe-Arg-Pro-Cys-Tyr-amide (peptide)
peptide: Ac-RCMLGRVFRPCY-NH2
modifications: disulfide 2-11
SMILES: CSCC[C@@H]1NC(=O)[C@@H](NC(=O)[C@H](CCCNC(=N)N)NC(C)=O)CSSC[C@@H](C(=O)N[C@@H](Cc2ccc(O)cc2)C(N)=O)NC(=O)[C@@H]2CCCN2C(=O)[C@H](CCCNC(=N)N)NC(=O)[C@H](Cc2ccccc2)NC(=O)[C@H](C(C)C)NC(=O)[C@H](CCCNC(=N)N)NC(=O)CNC(=O)[C@H](CC(C)C)NC1=O
Which “% Activation at 10 µM” value [3] does the source give for B8 here?
The value was 123%.

And the “EC50” value [3]?
Its value is 36 nM.

What about the IC50 [5] of the same binder?
Its IC50 is 0.16 nM.

B9: truncated MCH analog SEQ. ID. NO. 10: Asp-Phe-Asp-Met-Ieu-Arg-Cys-Met-Ieu-Gly-Arg-Val-Tyr-Arg-Pro-Cys-amide (peptide)
peptide: DFDMLRCMLGRVYRPC-NH2
modifications: disulfide 7-16; N-terminus assumed
SMILES: CSCC[C@@H]1NC(=O)[C@@H](NC(=O)[C@H](CCCNC(=N)N)NC(=O)[C@H](CC(C)C)NC(=O)[C@H](CCSC)NC(=O)[C@H](CC(=O)O)NC(=O)[C@H](Cc2ccccc2)NC(=O)[C@@H](N)CC(=O)O)CSSC[C@@H](C(N)=O)NC(=O)[C@@H]2CCCN2C(=O)[C@H](CCCNC(=N)N)NC(=O)[C@H](Cc2ccc(O)cc2)NC(=O)[C@H](C(C)C)NC(=O)[C@H](CCCNC(=N)N)NC(=O)CNC(=O)[C@H](CC(C)C)NC1=O
For B9, which “% Activation at 10 µM” value [3] is on record?
The value was 99%.

And the IC50 [5]?
The IC50 was 0.3 nM.

B10: MCH analog SEQ. ID. NO. 77 (Nle^8) (peptide)
peptide: RCXLGRVYRPC
modifications: norleucine at position 8; N-terminal acetyl, C-terminal amide, Cys-Cys disulfide as in SEQ. ID. NO. 7
notes: as for B1
Which IC50 [7] does the source give for B10 here?
The IC50 was 0.5 nM.

And the Activation % [13]?
The Activation % was 105%.

B11: MCH analog SEQ. ID. NO. 26 (N-Me-Leu^9) (peptide)
peptide: RCMXGRVYRPC
modifications: N-methyl-leucine at position 9; N-terminal acetyl, C-terminal amide, Cys-Cys disulfide as in SEQ. ID. NO. 7
notes: as for B1
Which Activation % [1] does the source give for B11 here?
The Activation % was 3%.

And the “EC50” value [1]?
The value was greater than 10000 nM.

And the “% @ 1 (in the IC50 column)” value [16]?
The value was 10%.

B12: MCH analog SEQ. ID. NO. 15 (D-Arg^6) (peptide)
peptide: XCMLGRVYRPC
modifications: D-Arg^6; N-terminal acetyl, C-terminal amide, Cys-Cys disulfide as in SEQ. ID. NO. 7
notes: as for B1
B12 was tested. Which IC50 [6] did it give?
The IC50 was 0.46 nM.

And the Activation % [11]?
The Activation % was 86%.

And the “EC50” value [11]?
The value was 45 nM.

B13: MCH analog SEQ. ID. NO. 70 (Ava^9,10) (peptide)
peptide: Ac-RCM[Ava][Ava]RVYRPC-NH2
modifications: disulfide 2-11; not fully specified
notes: as for B1
Which results are given for B13?
IC50 [7]: 3.7 nM; Activation % [13]: 82%

B14: MCH analog SEQ. ID. NO. 58 (position 10: D-Glu) (peptide)
peptide: RCMLXRVYRPC
modifications: D-Glu at position 10; N-terminal acetyl, C-terminal amide, Cys-Cys disulfide as in SEQ. ID. NO. 7
notes: as for B1
For B14, which “% @ 1 (in the IC50 column)” value [17] is on record?
The value was 40%.

And the “EC50” value [14]?
Its value is greater than 10000 nM.

B15: MCH analog SEQ. ID. NO. 27 (Sar^10) (peptide)
peptide: RCMLXRVYRPC
modifications: sarcosine at position 10; N-terminal acetyl, C-terminal amide, Cys-Cys disulfide as in SEQ. ID. NO. 7
notes: as for B1
Which results are given for B15?
Activation % [1]: 95%; IC50 [2]: 2.3 nM

B16: MCH analog SEQ. ID. NO. 74 (D-Pro^10,Ava^14,15) (peptide)
peptide: RCMLXRVYXXC
modifications: not fully specified; D-Pro^10; Ava (5-aminopentanoic acid) in place of positions 14,15; N-terminal acetyl, C-terminal amide, Cys-Cys disulfide as in SEQ. ID. NO. 7
notes: as for B1
Which results are given for B16?
IC50 [7]: 700 nM; Activation % [13]: 3%

B17: MCH analog SEQ. ID. NO. 71 (D-Arg^6,Ava^9,10) (peptide)
peptide: Ac-[dR]CM[Ava][Ava]RVYRPC-NH2
modifications: disulfide 2-11; not fully specified
notes: as for B1
B17 was tested. Which IC50 [7] did it give?
Its IC50 is 3.7 nM.

And the Activation % [13]?
The Activation % was 72%.
